Measurements: patent US20260055201A1 (SHENGHE CHINA BIOPHARMACEUTICAL, published 2026)
Read-outs that look alike come from different tables or passages of the source. Blank lines part the entries; values can stand above or below the binder they belong to.

Legend:
[1] = target: T1, human CCR8 on CCR8-CHO-K1 cells (human, UniProt P51685 1-355); assay: flow cytometry on CCR8-CHO-K1 cells, APC anti-human IgG Fc secondary antibody, Average-APC
T1 construct: CHO cells overexpressing human CCR8 by lentiviral transduction
Procedure: (§1) The purified antibodies were diluted to 120 nM with FACS buffer, using this as the starting concentration, and then diluted by 5-fold gradient (6 gradients in total). […] The cells were incubated at 4° C. for 60 min, then washed twice with excess FACS buffer. Resuspended the cells in 100 μL FACS Buffer and Added Fluorescent Secondary antibody APC (Biolegend, Cat: 109306) against human IgG FC to the sample. It was incubated for 30 min and washed twice with excess FACS buffer. Resuspended the cells in flow buffer and then detected and analyzed using a flow cytometer.

[2] = target: T2, Human TNFR2 mFc (manufacturer: Kaixia, CAT: TN-HM3R2) (human, UniProt P20333 23-257); assay: blocking ELISA: human TNFR2 mFc coated, antibody titrated together with human TNF alpha His (blocked ligand), anti-His detection, OD450
T2 construct: treated as one molecule; also called Human TNFR2 mFC (KaKa, CAT: TNF-HM3R2); human TNFR2 mFC protein; not shown: mFc part
T2 sequence (looked up): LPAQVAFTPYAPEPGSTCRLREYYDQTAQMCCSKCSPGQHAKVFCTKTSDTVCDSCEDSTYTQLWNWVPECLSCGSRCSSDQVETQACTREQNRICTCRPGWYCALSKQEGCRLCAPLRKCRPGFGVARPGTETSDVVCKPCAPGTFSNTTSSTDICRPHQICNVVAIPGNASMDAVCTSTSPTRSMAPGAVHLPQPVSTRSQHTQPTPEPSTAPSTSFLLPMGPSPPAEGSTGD
Procedure: (§2) The coating solution was poured off. Each well was washed with 1×PBST at 300 μL, washed 4 times with a plate washer, and patted dry on a flat paper. It was blocked with 3% skim milk powder at 300 μL/well, and incubated at 37° C. for 1 h. The blocking solution was poured off, washed 4 times with a plate washer, and patted dry on a flat paper. Negative control and positive control were set up. […] The positive control and antibody were diluted diluted to 100 nM with 3% skim milk powder as the starting concentration, and then diluted by 3-fold gradient (11 gradients in total), and a blank well was set up and only the diluent was added. […] The liquid in the well was discarded, washed 4 times with a plate washer, and patted dry on a flat paper. The anti his antibody (Abcam, Cat: ab1187) was diluted with 3% skim milk powder at 1:5000, 100 μL was added to each well, and incubated at 37° C. for 1 h. It was washed 6 times with a plate washer, and patted dry on a flat paper. TMB color developing solution was added at 100 μL/well, and wrapped with aluminum foil. Color development was performed at 37° C. in the dark for 8 min. Termination solution 1M HCl was added to terminate the color development reaction at 100 μL/well. Readings were taken at 450 nm on an ELISA reader.

[3] = target: T2, Human TNFR2 mFc (manufacturer: Kaixia, …); assay: as above; remark: listed apart in the source
Procedure: as §2

[4] = target: T3, Human TNFR2 His (manufacturer: SINO, CAT: 10417-H08H) (human, UniProt P20333 23-257); assay: bridging flow cytometry: antibody on CCR8-CHO-K1 cells captures human TNFR2 His, FITC anti-His (PBS background 15212)
T3 construct: Bought protein; also called human TNFR2 protein; TNFR2 protein; not shown: His tag
T3 sequence (looked up): T2 sequence (looked up)
Procedure: The cells after adding the sample were incubated at 4° C. for 60 min, and then washed twice with excess FACS buffer. Resuspended the cells in 100 μL FACS buffer and added FITC anti His tag (Abcam, Cat: ab1206) fluorescent secondary antibody carrying FITC to the sample. It was incubated for 30 min and washed twice with excess FACS buffer. Resuspended the cells in flow buffer and then detected and analyzed using a flow cytometer.

[5] = target: T4, human TNFR2 on TNFR2-CHO-K1 cells (human, UniProt P20333 23-461); assay: flow cytometry on TNFR2-CHO-K1 cells, APC anti-human IgG Fc secondary antibody, Average-APC
T4 construct: CHO cells overexpressing human TNFR2 by lentiviral transduction
T4 sequence: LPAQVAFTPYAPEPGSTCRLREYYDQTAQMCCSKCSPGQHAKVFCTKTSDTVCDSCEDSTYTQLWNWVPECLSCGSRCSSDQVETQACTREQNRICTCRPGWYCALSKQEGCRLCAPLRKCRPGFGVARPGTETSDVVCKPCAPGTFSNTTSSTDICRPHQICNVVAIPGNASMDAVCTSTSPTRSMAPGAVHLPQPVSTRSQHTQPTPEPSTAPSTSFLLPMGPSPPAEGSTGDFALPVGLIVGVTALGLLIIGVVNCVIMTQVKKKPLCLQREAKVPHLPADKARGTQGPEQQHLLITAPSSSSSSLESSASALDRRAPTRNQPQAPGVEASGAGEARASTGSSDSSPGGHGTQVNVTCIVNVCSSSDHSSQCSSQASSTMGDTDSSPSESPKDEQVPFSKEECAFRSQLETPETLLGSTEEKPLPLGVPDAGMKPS
Procedure: as §1, with “6-fold” for “5-fold”, “(7” for “(6”, “buffer” for “Buffer”, “added fluorescent secondary” for “Added Fluorescent Secondary”

B3: TR-A (bispecific antibody, human IgG1, kappa)
light: DIVMTQSPPTLSLSPGERATLSCRSSKSLLHSNGNTYLYWFQQKPGQSPQLLIYRMSNLASGIPDRFSGSGSGTDFTLTISRLEPEDFAVYYCMQHLEYPFTFGQGTKLEIKRTVAAPSVFIFPPSDEQLKSGTASVVCLLNNFYPREAKVQWKVDNALQSGNSQESVTEQDSKDSTYSLSSTLTLSKADYEKHKVYACEVTHQGLSSPVTKSFNRGEC
heavy: not shown
notes: also called antibody TR-A
binding result [1]: binds | Average FITC-A [4]: 40000

B4: TR-D (bispecific antibody, human IgG1, kappa)
light: B3 light
heavy: not shown
notes: also called antibody TR-D
binding result [1]: binds | EC50 (read off the curve) [5]: ~0.1 nM | Average FITC-A [4]: 30300 | IC50 (read off the curve) [2]: ~2 nM

B5: TR-C (bispecific antibody, human IgG1, kappa)
light: B3 light
heavy: not shown
notes: also called antibody TR-C
EC50 (read off the curve) [1]: ~1 nM | Average FITC-A [4]: 89500

B6: TR-B (bispecific antibody, human IgG1, kappa)
light: B3 light
heavy: not shown
notes: also called antibody TR-B
binding result [1]: binds | Average FITC-A [4]: 29000

B7: TR-G (bispecific antibody, human IgG1, kappa)
light: DIVMTQSPPTLSLSPGERATLSCRSSKSLLHSNGNTYLYWFQQKPGQSPQLLIYRMSNLASGIPDRFSGSGSGTDFTLTISRLEPEDFAVYYCMQHLEYPFTFGQGTKLEIKRTVAAPSVFIFPPSDEQLKSGTASVVCLLNNFYPREAKVQWKVDNALQSGNSQESVTEQDSKDSTYSLSSTLTLSKADYEKHKVYACEVTHQGLSSPVTKSFNRGECGGGGSGGGGSEVQLVESGGGLVQPGGSLRLSCAASGSRLDYYAVAWFRQAPGKEREEVSCITYSGGSTNYAESVKGRFTISRDNSKNTLYLQMNSLRAEDTAVYYCTTEPYGSSCPLSGYDTWGQGTLVTVSS
heavy: not shown
notes: also called antibody TR-G
EC50 (read off the curve) [1]: ~0.9 nM | EC50 (read off the curve) [5]: ~1 nM | Average FITC-A [4]: 33700

B10: TR-F (bispecific antibody, human IgG1, kappa)
light: EVQLVQSGAEVKKPGATVKISCKVSGYSITDYLLHWVQQAPGKCLEWMGWIDPEDAKTKYGQKFQSRVTITADTSTDTAYMELSSLRSEDTAVYYCAANSGTGTMDAWGQGTLVTVSSGGGGSGGGGSGGGGSDIVMTQSPATLSVSPGERATLSCKASQNVGSNVDWYQQKPGQSPRVLIYKASIRYTGIPARFSGSGSGTEFTLTISILQSEDFAVYFCMQSKSYPITFGCGTKLEIKGGGGSGGGGSGGGGSDIVMTQSPPTLSLSPGERATLSCRSSKSLLHSNGNTYLYWFQQKPGQSPQLLIYRMSNLASGIPDRFSGSGSGTDFTLTISRLEPEDFAVYYCMQHLEYPFTFGQGTKLEIKRTVAAPSVFIFPPSDEQLKSGTASVVCLLNNFYPREAKVQWKVDNALQSGNSQESVTEQDSKDSTYSLSSTLTLSKADYEKHKVYACEVTHQGLSSPVTKSFNRGEC
heavy: not shown
notes: also called antibody TR-F
binding result [1]: binds | EC50 (read off the curve) [5]: ~0.5 nM | Average FITC-A [4]: 27600

B11: anti-TNFR2 control antibody (SEQ ID NO: 52 and SEQ ID NO: 53, constant region of human IgG1 SEQ ID NO: 54 and SEQ ID NO: 55) (antibody, V domains shown)
VH: EVQLVQSGAEVKKPGATVKISCKVSGYSITDYLLHWVQQAPGKGLEWMGWIDPEDAKTKYGQKFQSRVTITADTSTDTAYMELSSLRSEDTAVYYCAANSGTGTMDAWGQGTLVTVSS
VL: DIVMTQSPATLSVSPGERATLSCKASQNVGSNVDWYQQKPGQSPRVLIYKASIRYTGIPARFSGSGSGTEFTLTISILQSEDFAVYFCMQSKSYPITFGQGTKLEIKR
notes: also called positive control 1
EC50 (read off the curve) [5]: ~0.3 nM

The remaining lines, values ahead:

EC50 (read off the curve) [1]: ~0.3 nM
B1: anti-CCR8 control antibody (variable region SEQ ID NO: 9 and SEQ ID NO: 13, constant region of human IgG1 SEQ ID NO: 54 and SEQ ID NO: 55) (antibody, V domains shown)
VH: EVQLVESGGGLVQPGGSLRLSCAASGFTFNTNAMNWVRQAPGKGLEWVGRIRTKSNNYATYYAESVRDRFTISRDDSKNSLYLQMNSLKTEDTAMYYCVRGGYGIRGEYTMDYWGQGTLVTVSS
VL: DIVMTQSPPTLSLSPGERATLSCRSSKSLLHSNGNTYLYWFQQKPGQSPQLLIYRMSNLASGIPDRFSGSGSGTDFTLTISRLEPEDFAVYYCMQHLEYPFTFGQGTKLEIKR

IC50 (read off the curve) [2]: ~2 nM | IC50 (read off the curve) [3]: ~2 nM
B2: Positive control (anti-TNFR2; antibody sequence variable region consists of SEQ ID NO: 25) (VHH, not shown: a dimerising Fc or GST)
VHH: EVQLVESGGGLVQPGGSLRLSCAASGSRLDYYAVAWFRQAPGKEREEVSCITYSGGSTNYAESVKGRFTISRDNSKNTLYLQMNSLRAEDTAVYYCTTEPYGSSCPLSGYDTWGQGTLVTVSS
notes: also called positive control 2

EC50 (read off the curve) [1]: ~1 nM | Average FITC-A [4]: 61900
B8: TR-E (bispecific antibody, human IgG1, kappa)
light: DIVMTQSPPTLSLSPGERATLSCRSSKSLLHSNGNTYLYWFQQKPGQSPQLLIYRMSNLASGIPDRFSGSGSGTDFTLTISRLEPEDFAVYYCMQHLEYPFTFGQGTKLEIKRTVAAPSVFIFPPSDEQLKSGTASVVCLLNNFYPREAKVQWKVDNALQSGNSQESVTEQDSKDSTYSLSSTLTLSKADYEKHKVYACEVTHQGLSSPVTKSFNRGECGGGGSGGGGSEVQLVQSGAEVKKPGATVKISCKVSGYSITDYLLHWVQQAPGKCLEWMGWIDPEDAKTKYGQKFQSRVTITADTSTDTAYMELSSLRSEDTAVYYCAANSGTGTMDAWGQGTLVTVSSGGGGSGGGGSGGGGSDIVMTQSPATLSVSPGERATLSCKASQNVGSNVDWYQQKPGQSPRVLIYKASIRYTGIPARFSGSGSGTEFTLTISILQSEDFAVYFCMQSKSYPITFGCGTKLEIK
heavy: not shown
notes: also called antibody TR-E

binding result [1]: binds | Average FITC-A [4]: 34200 | IC50 (read off the curve) [3]: ~3 nM
B9: TR-H (bispecific antibody, human IgG1, kappa)
light: EVQLVESGGGLVQPGGSLRLSCAASGSRLDYYAVAWFRQAPGKEREEVSCITYSGGSTNYAESVKGRFTISRDNSKNTLYLQMNSLRAEDTAVYYCTTEPYGSSCPLSGYDTWGQGTLVTVSSGGGGSGGGGSGGGGSDIVMTQSPPTLSLSPGERATLSCRSSKSLLHSNGNTYLYWFQQKPGQSPQLLIYRMSNLASGIPDRFSGSGSGTDFTLTISRLEPEDFAVYYCMQHLEYPFTFGQGTKLEIKRTVAAPSVFIFPPSDEQLKSGTASVVCLLNNFYPREAKVQWKVDNALQSGNSQESVTEQDSKDSTYSLSSTLTLSKADYEKHKVYACEVTHQGLSSPVTKSFNRGEC
heavy: not shown
notes: also called antibody TR-H
